Our source for the EC50, TF-1.CN5a.1 cell proliferation values is patent US20220160874A1.

The assay deals with CNTF receptor expressed on TF-1.CN5a.1 (ATCC CRL-2512) cells (UniProt P26992). Kind of assay: cell-based or functional assay.
Sequence of UniProt P26992 (P26992 23-342 limits assumed): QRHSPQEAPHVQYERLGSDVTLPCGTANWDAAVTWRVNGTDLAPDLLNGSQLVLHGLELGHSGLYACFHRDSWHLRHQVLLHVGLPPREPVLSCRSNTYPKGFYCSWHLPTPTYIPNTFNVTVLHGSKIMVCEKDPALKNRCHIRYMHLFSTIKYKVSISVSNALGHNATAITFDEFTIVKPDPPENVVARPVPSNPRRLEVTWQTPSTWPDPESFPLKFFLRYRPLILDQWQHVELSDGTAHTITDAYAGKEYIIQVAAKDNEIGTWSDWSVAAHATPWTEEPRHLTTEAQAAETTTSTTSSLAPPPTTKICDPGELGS

In the case of “CNTF control protein (Life Technologies) (ligand)”, the EC50, TF-1.CN5a.1 cell proliferation was 0.11 pM.
